Laboratory results reported in US20230295310A1 (ABCELLERA BIOLOGICS, published 2023).

Target: human CD3 (human, UniProt P07766 23-207; P04234 22-171; P09693 23-182)
Test: cell-based or functional assay

Sequence of human CD3 (P07766 23-207, chain 1 of 3): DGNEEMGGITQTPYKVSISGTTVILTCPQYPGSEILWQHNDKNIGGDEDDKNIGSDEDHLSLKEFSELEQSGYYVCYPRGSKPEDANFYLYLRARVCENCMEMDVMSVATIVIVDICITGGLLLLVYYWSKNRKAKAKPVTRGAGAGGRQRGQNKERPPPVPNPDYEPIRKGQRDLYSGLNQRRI
Sequence of human CD3 (P04234 22-171, chain 2 of 3): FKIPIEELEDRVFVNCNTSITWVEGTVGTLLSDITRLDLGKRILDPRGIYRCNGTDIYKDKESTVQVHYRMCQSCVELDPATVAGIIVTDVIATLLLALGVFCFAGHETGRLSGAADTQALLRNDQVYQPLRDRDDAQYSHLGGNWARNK
Sequence of human CD3 (P09693 23-182, chain 3 of 3): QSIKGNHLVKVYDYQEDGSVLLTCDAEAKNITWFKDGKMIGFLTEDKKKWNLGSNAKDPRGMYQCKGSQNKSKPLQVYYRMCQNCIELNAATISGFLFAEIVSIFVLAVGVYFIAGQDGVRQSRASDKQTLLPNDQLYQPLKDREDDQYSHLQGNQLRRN

Binder | CD4 EC50 (nM); CD69/CD25 on human T cells, plate-coated antibody [nM] | CD8 EC50 (nM); CD69/CD25 on human T cells, plate-coated antibody [nM]
mAb 85 (antibody, V domains shown) VH: QVQLVQSGAEVKKPGASVKVSCKASGYTVTGYYMHWVRQAPGQGLEWMGWINPNSGGTNFAQNFQGRVTMTRDTSISTFYMDLNRLRSDDTAVYYCARGGAPVSYWFFDLWGRGTLVTVSS VL: DIQMTQSPSSLSASVGDRVTITCRASQSISRYLNWYQQKPGKAPKVLIYNTSSLKSGVPSRFSGSGSGTDFTLTISSLQPEDFGTFYCQQSHSTPFTFGPGTKVDIK | 9.43 | 10.3
mAb 44 (antibody, V domains shown) VH: QAQLVQSGSELKKPGASVKVSCKASGYTFTRHAMNWVRQAPGQGLEWMGWINTNTGNPTYAQGFTGRFVFSLDTSVSTAYLKISSLKAEDTAVYYCVREGDYDFWSGFFNFDYWGQGTLVTVSS VL: DIQMTQSPSSLSASVGDRVTITCRASQGIRNDLGWFQQKPGKAPTRLIYAASSLQSGVPSRFSGSGSGAEFTLTISSLQPEDFATYYCLQHNSYPRTFGQGTKVEIK | 20.4 | 20.9
mAb 47 (antibody, V domains shown) V domain 1: QAQLVQSGSELKKPGASVKVSCKASGYTFTKHSMNWVRQAPGQGLEWMGWINTNTGNPTYAQGFTGRFVFSLDTSVTTAYLQISSLKAEDTAVYYCAREGDYDFWSGFFNFDYWGQGTLVTVSS V domain 2: QAQLVQSGSELKKPGASVKVSCKASGYTFTKHSMNWVRQAPGQGLEWMGWINTNTGNPTYAQGFTGRFVFSLDTSVTTAYLQISSLKAEDTAVYYCAREGDYDFWSGFFNFDYWGQGTLVTVSS | 23.4 | 23.8
mAb 102 (antibody, V domains shown) VH: QVQLVESGGGVVQPGRSLRLSCAASGFSFRSYGMHWVRQAPGKGLEWVSVISYDGGNKYYADSVKGRFTISRDNSKNTLFLQMKSLRAEDTALYYCAKGGGTYWRGLFEYWGQGTLVTVSS VL: DIQLTQSPSFLSASVGDRVTITCRASQGISSYLAWYQKKPGKAPKLLIYAASTLHSGVPSRFSGGGSGTAFTLTISSLQPEDFATYYCQQLNNYPFTFGPGTKVDIK | 15.6 | 16.9
mAb 94 (antibody, V domains shown) VH: QVHLVESGGGVVQPGRSLRLSCSASGFTFSGYGMHWVRQAPGKGLEWVALIYFDGRNKYYADSVKGRFTISRDNSKNTLYLQMNSLRAEDTAVYYCARGGGYNWFDPWGQGTLVTVSS VL: DIQMTQSPSSLSASVGDRVTITCRASQSISNYLNWYQQKPGKAPKLLIYLASSLQSGVPSRFSGSGSGTDFTLTINSLQPEDFASYYCQLSYSSPFTFGPGTKVDVN | 11.7 | 12.4
mAb 99 (antibody, V domains shown) VH: QGQLVESGGGVVQPGRSLRLSCAASGFTFRGFGMHWVRQAPGKGLEWVAIIYYDGKNKYYADSVKGRFTISRDNSKNTLYLQMNSLRAEDTAVYYCAKGGGYNWFDPWGQGTLVTVSS VL: DIQMTQSPSSLSASVGDRVTITCRASQSISTYLNWYQQKPGKAPKLLIYSASSLQSGVPSRFSGSGSGTDFTLTISNLQPEDFAIYYCQRSYSPPFTFGPGTKLDIR | 11.7 | 12.1
mAb 97 (antibody, V domains shown) VH: QGQLVESGGGVVQPGRSLRLSCAASGFTFRGYGMHWVRQAPGKGLEWVAIIYYDGKNKYYADSVKGRFTISRDNSKNTLYLQMNNLRVEDTAVYYCARGGGYNWFDPWGQGTLVTVSS VL: DIQMTQSPSSLSASIGDRVTITCRASQSISNYLNWYQQKPGKAPKLLIYSASSLQSGVPSRFSGSGSGTDFTLTISNLQPEDFAIYYCQRSYSPPFTFGPGTKLDIR | 12.6 | 13.9
mAb 100 (antibody, V domains shown) VH: QVQLVESGGGVVQPGRSLRLSCVASGFTFRGYGMHWVRQAPGKGLEWVAIIYYDGKNKYYADSVKGRFTISRDNSKNTLYLQMNSLRVEDTALYYCARGGGYNWFDPWGQGTLVTVSS VL: DIQMTQSPSSLSASVGDRVTITCRASQSISTYLNWYQQKPGKAPKLLIYTASSLQSGVPSRFSGSGSGTVFTLTISSLQPEDFAIYYCQRSYSPPFTFGPGTRLDIK | 13.1 | 13.3
mAb 98 (antibody, V domains shown) VH: QVHLVESGGDVVQPGRSLRLSCSASGFTFSGYGMHWVRQAPGKGLEWVALIYFDGRNKYYADSVKGRFTISRDNSKNTLYLQMNSLRAEDTAVYYCARGGGYNWFDPWGQGTLVTVSS VL: DIQMTQSPSSLSASVGDRVTITCRASQSINNYLNWYQQKPGKAPKLLIYLASSLQSGVPSRFSGSGSGTDFTLTISSLQPEDLATYYCQLSYSSPFTFGPGTKVDVK | 11.3 | 12
mAb 95 (antibody, V domains shown) VH: QAHLVESGGGVVQPGRSLRLSCSASGFTFSGYGMHWVRQAPGKGLEWVALIYFDGRNKYYADSVKGRFTISRDNSKNTLYLQMNSLRAEDTAVYYCARGGGYNWFDPWGQGTLVTVSS VL: DIQMTQSPSSLSASVGDRVTITCRASQSINNYLSWYQQKPGKAPKLLIYLASNLQSGVPSRFSGSGSGTDFTLTISSLQPEDFATYYCQLSYRSPFTFGPGTKVDVK | 14.4 | 15.5
mAb 96 (antibody, V domains shown) VH: QAHLVESGGGVVQPGRSLRLSCSASGFTFSGYGMHWVRQAPGKGLEWVSLIYFDGRNKYYADSVKGRFTISRDNSKNTLYLQMNSLRAEDTAVYYCARGGGYNWFDPWGQGTLVTVSS VL: DIQMTQSPSSLSASVGDRVTITCRASQSINNYLSWYQQKPGKAPKLLIYLASNLQSGVPSRFSGNGSGTDFTLTISSLQPEDFATYYCQLSYRSPFTFGPGTKVDVK | 17.2 | 19.5
mAb 101 (antibody, V domains shown) VH: QGQLVESGGGVVQPGRSLRLSCAASGFTFRGFGMHWVRQAPGKGLEWVAIIYYDGKNKYYADSVKGRFTISRDNSKNMLYLQMNSLRAEDTAVYYCAKGGGYNWFDPWGQGTLVTVSS VL: DIQMTQSPSSLSASVGDRVTITCRASQSISTYLNWYQQKPGKAPKLLIYSASSLQSGVPSRFSGSGSGTDFTLTISNLQPEDFAIYYCQRSYSPPFTFGPGTKLDIR | 12.9 | 14.5
mAb 106 (antibody, V domains shown) VH: QVQLVESGGGVVQPGRSLRLSCAASGFTFRSYGMHWVRQAPGKGLEWVAIIWYNGNKKDYVDSVKGRFTISRDNSKNTLYLQMNSLRAEDTALYYCARGPGYNWFDPWGQGTLVTVSS VL: DIQMTQSPPSLSASVGDRVTITCRASQRISSYLNWYQQKPGKAPKLLIYAASSLQSGVPSRFSGSGSGTDFTLTISSLQPEDFATYYCQQSDSFPLTFGGGTKVEII | 13.6 | 12.9
mAb 110 (antibody, V domains shown) VH: QVQLVESGGGVVQPGRSLRLSCAASGFTFRSYGMHWVRQAPGKGLEWVAIIWYNGNKKDYVDSVKGRFTISRDNSKNMLYLQMNSLRAEDTALYYCARGPGYNWFDPWGQGTLVTVSS VL: DIQMTQSPPSLSASVGDRVTITCRASQRISSYLNWYQQRPGKAPKLLIYAASSLQSGVPSRFSGSGSGTDFTLTISSLQPEDFATYYCQQTDSFPLTFGGGTKVEII | 13.5 | 15.3
mAb 111 (antibody, V domains shown) VH: EVQLVESGGVLVKTGGSLRLSCVASGFSFKKAWMNWVRQAPGKGLEWVGRIKRNSDGGAADYAAPVKDRFTLSRDDSKNTLYLQMNSLKTEDTAVYYCTTLDSSSWYVGYYYMDVWGKGTTVTVSS VL: DIHMTQSPSSVSASLGDRVTFTCRASQNINNWLAWYQQKPGKAPKLLIYTASSLQSGVPSRFSGSGSGTDFTLTISSLQPDDFATYYCQQAHSLPITFGQGTRLGIK | 6.96 | 9.42
mAb 113 (antibody, V domains shown) VH: EVQLVESGGGLVKTGGSLRLSCVASGFSFKKAWMNWVRQAPGKGLEWVGRIKRNTDGGTTDYAAPVKGRFTLSRDDSKNTLYLQMNSLKTEDTAVYYCTTLDSSSWYVGYYYMDVWGKGTTVTVSS VL: DIQMTQSPSSVSASVGDRVTITCRASQDINNWLAWYQQKPGKAPKILIYTASSLQSGVPSRFSGSGSGTDFTLTISSLQPEDFATYYCQQAHSLPITFGQGTRLEIK | 8.81 | 8.89
mAb 114 (antibody, V domains shown) VH: EVQLVESGGGLVKTGGSLRLSCVASGFSFKKAWMNWVRQAPGKGLEWVGRIKRNTDGGPADYAAPVKGRFTLSRDDSKKTLYLQMNSLKTEDTAVYYCTTLDSSSWYVGYYYMDVWGKGTTVTVSS VL: DIQMTQSPSSVSASVGDRVIITCRASQDINNWLAWYLQRPGKAPKLLIYAASSLQSGVPSRFSGSGSGTDFTLTIGSLQPEDFATYYCQQAHSLPITFGQGTRLEIQ | 12.6 | 12.5
mAb 112 (antibody, V domains shown) VH: EVQLVESGGGLVKTGGSHRLSCVASGFSFKKAWMNWVRQAPGKGLEWVGRIKRNSDGGTTDYAAPVKGRFILSRDDSKNTLYLQMNSLKTEDTAVYYCTTLDSSSWYVGYYYMDVWGKGTTVTVSS VL: DIQMTQSPSSVSASVGDRVTITCRASQDINNWLAWYQQKPGKAPKILIYTASNLQSGVPSRFSGSGSGTDFTLTISSLQPEDFATYFCQQAHSLPITFGQGTRLEIK | 6.48 | 6.56
